Measurements: patent publication US20170022281A1 (AbbVie / Abbott, published 2017)
Changes are numbered by the printed parent chain.

T1: rat PRLR ECD-Fc fusion protein (rat, UniProt P05710 20-229)
T1 construct: extracellular domain; not shown: Fc region (captured by goat anti-human Fc)
T1 sequence (looked up): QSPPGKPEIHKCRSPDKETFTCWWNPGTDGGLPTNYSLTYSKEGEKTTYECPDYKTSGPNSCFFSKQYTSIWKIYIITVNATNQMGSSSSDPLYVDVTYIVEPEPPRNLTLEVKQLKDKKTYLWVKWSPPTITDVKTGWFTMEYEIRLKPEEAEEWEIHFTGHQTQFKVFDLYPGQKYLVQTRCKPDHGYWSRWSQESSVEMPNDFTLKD

T2: mouse PRLR ECD-Fc fusion protein (mouse, UniProt Q08501 20-229)
T2 construct: extracellular domain; not shown: Fc region (captured by goat anti-human Fc)
T2 sequence (looked up): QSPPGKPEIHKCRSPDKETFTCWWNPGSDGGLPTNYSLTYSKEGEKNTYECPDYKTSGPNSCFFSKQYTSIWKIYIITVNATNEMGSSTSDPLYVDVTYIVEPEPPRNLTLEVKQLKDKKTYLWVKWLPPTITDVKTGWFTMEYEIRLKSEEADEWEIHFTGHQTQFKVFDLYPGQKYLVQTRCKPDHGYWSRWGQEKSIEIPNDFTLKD

T3: human PRLR on cells (human, UniProt P16471 25-622)
T3 construct: Endogenous on T47D cells, transfected in Baf3-hPRLR cells; also called hPRLR; T47D cells
T3 sequence: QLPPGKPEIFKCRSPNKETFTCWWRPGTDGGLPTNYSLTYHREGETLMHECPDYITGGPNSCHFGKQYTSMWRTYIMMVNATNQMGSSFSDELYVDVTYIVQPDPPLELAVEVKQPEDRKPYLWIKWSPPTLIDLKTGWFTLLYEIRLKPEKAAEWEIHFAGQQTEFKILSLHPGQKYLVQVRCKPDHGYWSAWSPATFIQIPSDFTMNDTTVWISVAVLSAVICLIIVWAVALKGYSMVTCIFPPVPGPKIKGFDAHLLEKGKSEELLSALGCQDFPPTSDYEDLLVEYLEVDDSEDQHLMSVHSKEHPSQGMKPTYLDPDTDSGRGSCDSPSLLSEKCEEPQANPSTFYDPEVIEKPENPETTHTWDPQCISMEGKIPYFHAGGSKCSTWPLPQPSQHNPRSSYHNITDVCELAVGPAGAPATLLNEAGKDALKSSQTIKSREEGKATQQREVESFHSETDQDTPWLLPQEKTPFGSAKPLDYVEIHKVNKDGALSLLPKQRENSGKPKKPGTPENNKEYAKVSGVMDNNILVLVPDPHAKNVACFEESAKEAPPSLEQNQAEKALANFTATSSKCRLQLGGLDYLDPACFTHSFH

T4: rat PRLR on Nb2-11 rat lymphoma cells (rat, UniProt P05710 20-610)
T4 construct: whole, on cells
T4 sequence (looked up): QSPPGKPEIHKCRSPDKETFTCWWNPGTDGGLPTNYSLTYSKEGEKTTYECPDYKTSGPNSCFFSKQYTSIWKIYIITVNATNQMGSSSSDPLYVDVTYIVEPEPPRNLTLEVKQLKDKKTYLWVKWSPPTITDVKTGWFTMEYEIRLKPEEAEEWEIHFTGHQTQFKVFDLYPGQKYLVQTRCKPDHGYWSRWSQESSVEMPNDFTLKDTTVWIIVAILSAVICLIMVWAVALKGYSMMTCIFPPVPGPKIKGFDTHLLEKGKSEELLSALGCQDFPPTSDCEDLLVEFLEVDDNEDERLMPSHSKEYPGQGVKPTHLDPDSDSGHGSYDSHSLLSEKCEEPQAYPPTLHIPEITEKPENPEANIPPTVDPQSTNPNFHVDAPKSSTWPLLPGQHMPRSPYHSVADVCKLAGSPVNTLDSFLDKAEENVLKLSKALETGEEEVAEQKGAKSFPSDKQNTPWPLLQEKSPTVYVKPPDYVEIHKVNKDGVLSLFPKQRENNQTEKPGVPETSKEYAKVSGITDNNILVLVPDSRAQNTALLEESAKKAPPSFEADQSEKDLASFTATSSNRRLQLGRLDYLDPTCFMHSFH

B1: chAb8 (antibody, human IgG1, kappa, V domains shown)
VH: EVQLQQSGPELVKPGASVKISCKASGYTFTDYNIHWVKQSHGKSLEWIGYIYPNNDGTGYNQKFKSKATLTVDNSSSTAYMEVRSLTSEDSAVYYCARGDGNYVGDMDYWGQGTSVTVSS
VL: DIQMTQSPASLSASVGETVTITCRASENIYSYLAWYQQKQGKPPQLLVYNAKTLAEGVPSRFSGGGSGTQFSLKINSLQPEDFGSYYCQHHYATPFTFGSGTKLEIKT
notes: chimeric, murine variable and human G1/kappa constant regions
B2: Ab30 (antibody, human IgG1, kappa, V domains shown)
VH: EVQLVQSGAEVKKPGSSVKVSCKASGYTFTSFWMHWVRQAPGQGLEWIGVIDPSDTYTNYNQKFKGRATLTVDESSSTAYMELSSLRSEDTAVYYCARGDYSNWFTYWGQGTLVTVSS
VL: DVVMTQTPLSLSVTPGQPASISCRSSQRLVHSNGNTYLHWYLQKPGQSPQLLIYKVSNRFSGVPDRFSGSGSGTDFTLKISRVEAEDVGVYFCSQSTHVPWTFGGGTKVEIKR
notes: humanized from Ab5; G1; also called Ab2 HC.1a and Ab2 LC.1a
B3: Ab12 (antibody, V domains shown)
VH: DVQLQESGPGLVKPSQSLSLTCTVTGYSITSDYAWNWIRQFPGNKLEWMGYIGYSGRTSFNPSLKSRISITRDTSKNQFFLQLNSVTTEDTATYYCARGGFAMDYWGQGTSVTVSS
VL: QIVLTQSPGIMSASPGEKVTMTCSASSSVTYMYWYQQKPRSSPKPWIYLTSNLASGVPARFSGSGSGTSYSLTISSMEAEDGATYYCQQWSSTPPLTFGGGTKLELN
notes: murine monoclonal, isotype G2a; reported as PRLR agonist; also called murine Ab12
B4: Ab5 (antibody, V domains shown)
VH: QVQLQQPGAELVRPGTSVKLSCKASGYTFTSFWMHWVKQRPGQGLEWIGVIDPSDTYTNYNQKFKGKATLTVDTSSSTAYMQLSSLTSEDSAVYYCARGDYSNWFTYWGQGTLVTVSA
VL: DVVMTQTPLSLPVSLGDQASISCRSSQRLVHSNGNTYLHWYLQKPGQSPKLLIYKVSNRFSGVPDRFSGSGSGTDFTLKISRVEAEDLGVYFCSQSTHVPWTFGGGTKLEIK
notes: murine monoclonal, isotype G2a; also called murine Ab5
B5: Ab7 (antibody, V domains shown)
VH: QVQLQQPGAELVMPGTSVKLSCKASGYTFTSYWIHWVKQRPGQGLEWIGEIDPSDSYTNYNQKFKGKATLTVDRSSSTAYMQLSSLTSEDSAVYYCGRSFFTNWFAYWGQGTLVTVSA
VL: B4 VL with R28S, S81N, W101F, G105S
notes: murine monoclonal, isotype G1; also called murine Ab7
B6: chAb5 (antibody, human IgG1, kappa, V domains shown)
VH: B4 VH
VL: B2 VL with S12P, T14S, P15L, Q17D, P18Q, Q50K, V88L, V109L, R113T
notes: as for B1
B7: Ab11 (antibody, V domains shown)
VH: EVKLVESGGGLVQPGGSLKLSCAASGFTFSDYYMFWVRQTPEKSLEWVAYISNGGGSTYYPDTVKGRFTISRDNAKNTLYLQMSRLKSEDTAMYYCSRQLFYYGSRGAMGYWGQGTSVTVSS
VL: B4 VL with V3L, R28S, L29I, H39E, F92Y, S94F, S96G, T97S, W101F, G105S
notes: murine monoclonal, isotype G1; also called murine Ab11
B8: Ab13 (antibody, V domains shown)
VH: B4 VH with T56S, Y57H, D73N, Q82H
VL: B4 VL with L9F, R28S, G89E, V90L
notes: murine monoclonal, isotype G2a; also called murine Ab13
B9: Ab10 (antibody, V domains shown)
VH: EVQLHQSGPELVKPGASVKISCKASGYTFTDYNMHWMKQSHGKSLEWIGYFYPYNGGTGYNQEFKNKATLTVDISSSTAYMELRRLTSEDSAVYYCARGGWGIYYAMDYWGQGTSVTVSS
VL: DIQMTQSPASLSASVGETVTITCRASENIYSYLTWYQQKQGKSPQLLVYNAKTLAEGVPSRFSGSGSGTQFSLKINSLQPEDFGSYHCQHHSVTPLTFGAGTKLELK
notes: murine monoclonal, isotype G2a; also called murine Ab10
B10: chAb7 (antibody, human IgG1, kappa, V domains shown)
VH: B5 VH
VL: DVVMTQTPLSLPVSLGDQASISCRSSQSLVHSNGNTYLHWYLQKPGQSPKLLIYKVSNRFSGVPDRFSGSGSGTDFTLKINRVEAEDLGVYFCSQSTHVPFTFGSGTKLEIKT
notes: as for B1
B11: LFA102 (antibody, human IgG1, kappa, V domains shown)
VH: EVQLVESGGGLVQPGGSLRLSCAVSGFTFSSYGMSWVRQAPGKRLEWVATVSSGGTYTYYPDSVKGRFTISRDNSKNTLYLQMNSLRAEDTAMYYCARHRGNYYATYYYAMDYWGQGTLVTVSS
VL: DIVLTQSPDSLAVSLGERATINCKASKSVSTSGYTYMHWYQQKPGQPPKLLIYLASNRESGVPDRFSGSGSGTDFTLTISPVQAEDVATYYCQHSGELPPSFGQGTKLEIKR
notes: humanized IgG1 kappa comparator (WO 2008022295)
B12: Ab6 (antibody, V domains shown)
VH: QVQLQQPGAELVMPGSSVKLSCKASGYTFTTYWMHWVKQRPGQGLEWIGEIDPSDSYSNYNQKFKDKATLTVDKSSSTAYMQLSSLTSEDSAVYYCARNGGLGPAWFSYWGQGTLVTVSA
VL: DIVMTQSQKFMSTTVGDRVSITCKASQYVGTAVAWYQQKPGQSPKLLIYSASNRYTGVPDRFTDSGSGTDFTLTISNLQSEDLADYFCQQYSSYPWTFGGGTKLEIK
notes: murine monoclonal, isotype G1; also called murine Ab6

Target: T1, rat PRLR ECD-Fc fusion protein
Experiment: ELISA on ECD
In short: (§1)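 PRLR was captured on blocked plates for 1 h, then incubated 1 h with serial antibody dilutions in PBS pH 7.4/0.05% Tween 20 containing 10% Superblock. HRP secondary and TMB gave signal read at 450 nm, and EC50 came from curve fitting.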

Row | Binder | EC50 [nM]
1 | B1 | 0.305
2 | B2 | 0.423
3 | B3 | 0.116
4 | B4 | 0.08
5 | B5 | 0.135
6 | B6 | 0.147
7 | B7 | 0.087
8 | B8 | 0.085
9 | B9 | 0.234
10 | B10 | 0.157
11 | B11 | 0.157

Target: T2, mouse PRLR ECD-Fc fusion protein
Experiment: ELISA on ECD
In short: as §1

Row | Binder | EC50 [nM]
12 | B1 | 1.02
13 | B2 | 0.198
14 | B3 | 0.121
15 | B4 | 0.098
16 | B5 | 0.143
17 | B6 | 0.12
18 | B7 | 0.086
19 | B8 | 0.088
20 | B9 | 1.14
21 | B10 | 0.184

Target: T3, human PRLR on cells
Experiment: FACS T47D 10 ug/mL

Row | Binder | FACS GeoMean-neg
22 | B3 | 1680
23 | B12 | 1840
24 | B4 | 1610
25 | B5 | 2380
26 | B7 | 2220
27 | B8 | 1500
28 | B9 | 2720
29 | B11 | 1640

Target: T4, rat PRLR on Nb2-11 rat lymphoma cells
Experiment: FACS Nb2-11 20 ug/mL
Method: Nb2-11 and Baf3-xPRLR cells were resuspended in FACS buffer (PBS+1% FBS) at 2 millions cells/mL. Cells were added to round bottom 96-well plate (100 uL/well) and treated with testing PRLR antibodies for 1 hr at 4 C. Cells were then washed with FACS buffer twice and incubated with 2nd antibody conjugated to ALEXA488 (Invitrogen) for 1 hr at 4 C. After two washes in FACS buffer, cells were resuspended in 1% formaldehyde in PBS. Cells were analyzed using LSRII flowcytometer.

Row | Binder | FACS GeoMean-neg
30 | B3 | 17
31 | B12 | 0
32 | B4 | 90
33 | B5 | 82
34 | B7 | 94
35 | B8 | 60
36 | B9 | 16
37 | B11 | 98

Target: T4, rat PRLR on Nb2-11 rat lymphoma cells
Experiment: cell-based or functional assay

Row | Binder | Nb2-11 proliferation IC50 [µg/mL]
38 | B12 | > 30
39 | B4 | 0.91
40 | B5 | 4.42
41 | B6 | 0.69
42 | B7 | > 30
43 | B8 | 7.56
44 | B9 | > 30
45 | B10 | 16.8
46 | B11 | 0.93
